According to the supplement of paper PMC10567573:

B1: DFFB (parent)
chain: KLNCDPSRIYKPQTRLKRKQPVRK

Variants of: B1
Experiment: protein stability index of a GFP-peptide fusion (GPS, HEK-293T) (PSI 1-6); higher = more stable
Conditions: c terminus: a fixed tail appended
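Also: lentivirally expressed fusions sorted by FACS into six bins by GFP to DsRed ratio, PSI derived from sequencing read proportions per bin multiplied by bin number.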

First: KLNCDPSQIYKPQTRLKRKQPVRK [R8Q]
Second: KLNCDPSFIYKPQTRLKRKQPVRK [R8F]
The protein stability index of the first is higher: 3.57 for the first, 3.55 for the second.

First: KLNCDPSPIYKPQTRLKRKQPVRK [R8P]
Second: KLNCDPSGIYKPQTRLKRKQPVRK [R8G]
The protein stability index of the first is lower: 3.58 for the first, 3.83 for the second.

Going from KLNCDPSIIYKPQTRLKRKQPVRK [R8I] to KLNCDPSMIYKPQTRLKRKQPVRK [R8M], the protein stability index rises from 2.93 to 3.23.

Going from KLNCDPSYIYKPQTRLKRKQPVRK [R8Y] to KLNCDPSAIYKPQTRLKRKQPVRK [R8A], the protein stability index rises from 2.77 to 3.84.

Compared with KLNCDPSTIYKPQTRLKRKQPVRK [R8T], KLNCDPSRIHKPQTRLKRKQPVRK [Y10H] is higher in protein stability index: 2.81 for the first, 3.86 for the second.

Compared with KLNCDPSRINKPQTRLKRKQPVRK [Y10N], KLNCDPSRIEKPQTRLKRKQPVRK [Y10E] is lower in protein stability index: 3.57 for the first, 3.56 for the second.

First: KLNCDPSRIMKPQTRLKRKQPVRK [Y10M]
Second: KLNCDPSRISKPQTRLKRKQPVRK [Y10S]
The protein stability index of the first is lower: 3.38 for the first, 4.16 for the second.

First: KLNCDPSRIKKPQTRLKRKQPVRK [Y10K]
Second: KLNCDPSRIWKPQTRLKRKQPVRK [Y10W]
The protein stability index of the first is lower: 3.21 for the first, 3.47 for the second.

Compared with KLNCDPSRIDKPQTRLKRKQPVRK [Y10D], KLNCDPSRITKPQTRLKRKQPVRK [Y10T] is lower in protein stability index: 3.55 for the first, 3.35 for the second.

Compared with KLNCDPSRIYKYQTRLKRKQPVRK [P12Y], KLNCDPSRIYKRQTRLKRKQPVRK [P12R] is higher in protein stability index: 2.79 for the first, 3.33 for the second.

Compared with KLNCDPSRIYKKQTRLKRKQPVRK [P12K], KLNCDPSRIYKMQTRLKRKQPVRK [P12M] is lower in protein stability index: 3.46 for the first, 3.31 for the second.

Compared with KLNCDPSRIYKWQTRLKRKQPVRK [P12W], KLNCDPSRIYKPQTRLKAKQPVRK [R18A] is lower in protein stability index: 3.21 for the first, 2.94 for the second.

First: KLNCDPSRIYKPQTRLKIKQPVRK [R18I]
Second: KLNCDPSRIYKPQTRLKTKQPVRK [R18T]
The protein stability index of the first is lower: 3.32 for the first, 3.96 for the second.

Compared with KLNCDPSRIYKPQTRLKHKQPVRK [R18H], KLNCDPSRIYKPQTRLKMKQPVRK [R18M] is higher in protein stability index: 3.13 for the first, 3.68 for the second.

Going from KLNCDPSRIYKPQTRLKNKQPVRK [R18N] to KLNCDPSRIYKPQTRLKFKQPVRK [R18F], the protein stability index rises from 3.23 to 3.44.

First: KLNCDPSRIYKPQTRLKKKQPVRK [R18K]
Second: KLNCDPSRIYKPQTRLKWKQPVRK [R18W]
The protein stability index of the first is higher: 3.76 for the first, 3.03 for the second.

Going from KLNCPPSRIYKPQTRLKRKQPVRK [D5P] to KLNCWPSRIYKPQTRLKRKQPVRK [D5W], the protein stability index falls from 3.25 to 2.71.

Compared with KLNCSPSRIYKPQTRLKRKQPVRK [D5S], KLNCHPSRIYKPQTRLKRKQPVRK [D5H] is higher in protein stability index: 3.35 for the first, 3.48 for the second.

First: KLNCLPSRIYKPQTRLKRKQPVRK [D5L]
Second: KLNCRPSRIYKPQTRLKRKQPVRK [D5R]
The protein stability index of the first is lower: 3.06 for the first, 3.34 for the second.

First: KLNCTPSRIYKPQTRLKRKQPVRK [D5T]
Second: KLNCFPSRIYKPQTRLKRKQPVRK [D5F]
The protein stability index of the first is lower: 2.92 for the first, 3.08 for the second.

Compared with KLNCQPSRIYKPQTRLKRKQPVRK [D5Q], KLNCMPSRIYKPQTRLKRKQPVRK [D5M] is lower in protein stability index: 3.32 for the first, 2.71 for the second.

First: KLNCDPSRDYKPQTRLKRKQPVRK [I9D]
Second: KLNCDPSRWYKPQTRLKRKQPVRK [I9W]
The protein stability index of the first is higher: 4.04 for the first, 2.82 for the second.

First: KLNCDPSREYKPQTRLKRKQPVRK [I9E]
Second: KLNCDPSRYYKPQTRLKRKQPVRK [I9Y]
The protein stability index of the first is higher: 3.93 for the first, 3.32 for the second.

First: KLNCDPSRRYKPQTRLKRKQPVRK [I9R]
Second: KLNCDPSRFYKPQTRLKRKQPVRK [I9F]
The protein stability index of the first is lower: 2.91 for the first, 3.83 for the second.

Compared with KLNCDPSRQYKPQTRLKRKQPVRK [I9Q], KLNCDPSRTYKPQTRLKRKQPVRK [I9T] is lower in protein stability index: 3.9 for the first, 3.31 for the second.

First: KLNCDPSRGYKPQTRLKRKQPVRK [I9G]
Second: KTNCDPSRIYKPQTRLKRKQPVRK [L2T]
The protein stability index of the first is lower: 3.47 for the first, 4.12 for the second.

First: KSNCDPSRIYKPQTRLKRKQPVRK [L2S]
Second: KFNCDPSRIYKPQTRLKRKQPVRK [L2F]
The protein stability index of the first is higher: 4.16 for the first, 3.96 for the second.

First: KANCDPSRIYKPQTRLKRKQPVRK [L2A]
Second: KINCDPSRIYKPQTRLKRKQPVRK [L2I]
The protein stability index of the first is higher: 4.27 for the first, 3.2 for the second.

Going from KPNCDPSRIYKPQTRLKRKQPVRK [L2P] to KKNCDPSRIYKPQTRLKRKQPVRK [L2K], the protein stability index falls from 4.57 to 2.28.

Compared with KLNCDPSRIYKPQTRLKRKQNVRK [P21N], KLNCDPSRIYKPQTRLKRKQQVRK [P21Q] is lower in protein stability index: 3.67 for the first, 3.37 for the second.

Going from KLNCDPSRIYKPQTRLKRKQMVRK [P21M] to KLNCDPSRIYKPQTRLKRKQGVRK [P21G], the protein stability index falls from 3.76 to 3.49.

Going from KLNCDPSRIYKPQTRLKRKQTVRK [P21T] to KLNCDPSRIYKPQTMLKRKQPVRK [R15M], the protein stability index falls from 3.86 to 3.21.

KLNCDPSRIYKPQTKLKRKQPVRK [R15K] and KLNCDPSRIYKPQTCLKRKQPVRK [R15C] are the same in protein stability index: 3.24 for the first, 3.24 for the second.

Compared with KLNCDPSRIYKPQTDLKRKQPVRK [R15D], KLNCDPSRIYKPQTSLKRKQPVRK [R15S] is higher in protein stability index: 3.09 for the first, 3.96 for the second.

Compared with KLNCDPSRIYKPQTTLKRKQPVRK [R15T], KLNCDPSRIYKPQTELKRKQPVRK [R15E] is lower in protein stability index: 3.76 for the first, 3.68 for the second.

First: KLNCDPSRIYKPQTRLVRKQPVRK [K17V]
Second: KLNCDPSRIYKPQTRLMRKQPVRK [K17M]
The protein stability index of the first is lower: 3.25 for the first, 3.45 for the second.

First: KLNCDPSRIYKPQTRLIRKQPVRK [K17I]
Second: KLNCDPSRIYKPQTRLSRKQPVRK [K17S]
The protein stability index of the first is lower: 3.21 for the first, 3.35 for the second.

Going from KLNCDPSRIYKPQTRLTRKQPVRK [K17T] to KLNCDPSRIYKPQTRLHRKQPVRK [K17H], the protein stability index falls from 3.14 to 2.55.

Going from KLNCDPSRIYKPQTRVKRKQPVRK [L16V] to KLNCDPSRIYKPQTRQKRKQPVRK [L16Q], the protein stability index rises from 3.88 to 3.9.

Compared with KLNCDPSRIYKPQTREKRKQPVRK [L16E], KLNCDPSRIYKPQTRHKRKQPVRK [L16H] is lower in protein stability index: 4.44 for the first, 3.9 for the second.

Going from KLNCDPSRIYKPQTRPKRKQPVRK [L16P] to KLNCDPSRIYKPQTRSKRKQPVRK [L16S], the protein stability index falls from 3.83 to 3.6.

Going from KLNCDPSRIYKPQTRRKRKQPVRK [L16R] to KLNCDPSRIYKPQTRYKRKQPVRK [L16Y], the protein stability index rises from 3.48 to 3.77.

First: KLNCDPSRIYKPQTRGKRKQPVRK [L16G]
Second: KLNCDPSRIYKPQTRMKRKQPVRK [L16M]
The protein stability index of the first is higher: 4.16 for the first, 3.23 for the second.

Compared with KLNCDPSRIYKPQTRLKRKQPVRC [K24C], KLNCDPSRIYKPQTRLKRKQPVRL [K24L] is lower in protein stability index: 2.96 for the first, 2.87 for the second.

Compared with KLNCDPSRIYKPQTRLKRKQPVRV [K24V], KLNCDPSRIYKPQTRLKRKQPVRH [K24H] is higher in protein stability index: 2.49 for the first, 3.15 for the second.

Going from KLNCDPSRIYKPQTRLKRKQPVPK [R23P] to KLNCDPSRIYKPQTRLKRKQPVAK [R23A], the protein stability index falls from 3.84 to 3.39.

Compared with KLNCDPSRIYKPQTRLKRKQPVCK [R23C], KLNCDPSRIYKPQTRLKRKQPVLK [R23L] is lower in protein stability index: 3.21 for the first, 2.81 for the second.
